# *1 amine or outer side, *2 acyl side, *3 side chain or, on linkers, in order; H or OH if unused. Bridges are numbered along the chain shown (N, C = ends). Roman numbers before positions name the chains, in order. [ ]: non-standard residue; d: D form. X1 = CC(C)CCC[C@@H](C)[C@H]1CC[C@H]2[C@@H]3CC=C4C[C@@H](OC(=O)NCCOCCOCCOCCOCCC(=O)NCCOCCOCCOCCOCCOCCOCCOCCOCCOCCOCCOCCOCCOCCOCCOCCOCCOCCOCCOCCOCCOCCOCCOCCOCCOCCOCCOCCOCCC(=O)NC(CCC(=O)[*:1])(CCC(=O)[*:2])CCC(=O)[*:3])CC[C@]4(C)[C@H]3CC[C@]12C; PEG4 = NCCOCCOCCOCCOCCC(=O)O
# What was measured:
# [1] = Rat pharmacokinetics, IV and SC
# [2] = Rat pharmacokinetics, IV and SC; type: in vivo, Sprague Dawley rats
# [3] = Solubility in standard aqueous buffers; type: physicochemical; settings: standard aqueous buffers (e.g., PBS, HEPES) at physiological pH
# [4] = Non-human primate pharmacokinetics, IV and SC; type: in vivo, cynomolgus monkeys; settings: male, cynomolgus monkey, plasma; for half-life: pH 7.4
# [5] = male, rat, in vivo, iv, 1 mg/kg, pH 7.4
# [6] = male, rat, in vivo, sc, 1 mg/kg
# [7] = Sprague-Dawley, rat, plasma, sc
# [8] = rats, IV, compared to PIE12-trimer
# [9] = male, rat, in vivo, iv, 1 mg/kg
compound,measurement,setting,value
CC(=O)N[C@H](Cc1c[nH]cn1)C(=O)N1CCC[C@@H]1C(=O)N[C@@H]1CSSC[C@H](C(=O)N[C@H](CCC(=O)O)C(=O)N[C@H](CC(C)C)C(=O)NCC(=O)N[C@H](CCCCNC(=O)CCOCCOCCOCCOCCNC(=O)CCOCC(COCCC(=O)NCCOCCOCCOCCOCCC(=O)NCCCC[C@@H](NC(=O)CNC(=O)[C@@H](CC(C)C)NC(=O)[C@@H](CCC(=O)O)NC(=O)[C@H]2CSSC[C@@H](NC(=O)[C@H]3CCCN3C(=O)[C@@H](Cc3c[nH]cn3)NC(C)=O)C(=O)N[C@H](CC(=O)O)C(=O)N[C@H](Cc3ccc(O)cc3)C(=O)N3CCC[C@@H]3C(=O)N[C@H](CCC(=O)O)C(=O)N[C@H](Cc3c[nH]c4ccccc34)C(=O)N[C@H](CCC(N)=O)C(=O)N[C@H](Cc3c[nH]c4ccccc34)C(=O)N[C@H](CC(C)C)C(=O)N2)C(N)=O)(COCCC(=O)NCCOCCOCCOCCOCCC(=O)NCCCC[C@@H](NC(=O)CNC(=O)[C@@H](CC(C)C)NC(=O)[C@@H](CCC(=O)O)NC(=O)[C@H]2CSSC[C@@H](NC(=O)[C@H]3CCCN3C(=O)[C@@H](Cc3c[nH]cn3)NC(C)=O)C(=O)N[C@H](CC(=O)O)C(=O)N[C@H](Cc3ccc(O)cc3)C(=O)N3CCC[C@@H]3C(=O)N[C@H](CCC(=O)O)C(=O)N[C@H](Cc3c[nH]c4ccccc34)C(=O)N[C@H](CCC(N)=O)C(=O)N[C@H](Cc3c[nH]c4ccccc34)C(=O)N[C@H](CC(C)C)C(=O)N2)C(N)=O)NC(=O)CCOCCOCCOCCOCCOCCOCCOCCOCCOCCOCCOCCOCCOCCOCCOCCOCCOCCOCCOCCOCCOCCOCCOCCOCCNC(=O)CCN2C(=O)CC(S[C@H]3CC[C@@]4(C)C(=CC[C@H]5[C@@H]6CC[C@H]([C@H](C)CCCC(C)C)[C@@]6(C)CC[C@@H]54)C3)C2=O)C(N)=O)NC(=O)[C@@H](CC(C)C)NC(=O)[C@@H](Cc2c[nH]c3ccccc23)NC(=O)[C@@H](CCC(N)=O)NC(=O)[C@@H](Cc2c[nH]c3ccccc23)NC(=O)[C@@H](CCC(=O)O)NC(=O)[C@H]2CCCN2C(=O)[C@@H](Cc2ccc(O)cc2)NC(=O)[C@@H](CC(=O)O)NC1=O (some centres unmarked) [Chol-PIE12-trimer],half-life,[1]; [5],1.6 h
same,bioavailability,[1]; [6],51%
same,C0,"[1]; rat, in vivo, iv, 1 mg/kg",4530 nM
same,Vd,"[2]; Sprague-Dawley, rat, plasma, iv",0.134 L/kg
same,Tmax,[2]; [7],4 h
same,bioavailability,[2]; [7],73%
same,increase of IV half-life,[2]; [8],3 fold
same,reduction of clearance,[2]; [8],14-18 fold
same,extension of apparent half-life upon SC dosing,"[2]; rats, SC, based on terminal-phase elimination, compared to PIE12-trimer",~ 3 fold
same,solubility,[3],~ 40 mg/ml
"I: Ac-[dH][dP][dC][dD][dY][dP][dE][dW][dQ][dW][dL][dC][dE][dL]G[PEG4][dK]-NH2 / II: Ac-[dH][dP][dC][dD][dY][dP][dE][dW][dQ][dW][dL][dC][dE][dL]G[PEG4][dK]-NH2 / III: Ac-[dH][dP][dC][dD][dY][dP][dE][dW][dQ][dW][dL][dC][dE][dL]G[PEG4][dK]-NH2 (disulfide I:3-I:12, II:3-II:12, III:3-III:12; linker I:17-II:17-III:17 via X1) [CPT31]",AUC(0-inf),"[4]; iv, 1 mg/kg",11.6 µM·h
same,C0,"[4]; iv, 1 mg/kg",3110 nM
same,Vd,"[4]; iv, 1 mg/kg",0.097 L/kg
same,clearance,"[4]; iv, 1 mg/kg",0.158 mL/min/kg
same,half-life,"[4]; iv, 1 mg/kg",7.4 h
same,AUC(0-inf),"[4]; sc, 3 mg/kg",29.4 µM·h
same,Cmax,"[4]; sc, 3 mg/kg",922 nM
same,Tmax,"[4]; sc, 3 mg/kg",8 h
same,bioavailability,"[4]; sc, 3 mg/kg",80%
same,half-life,"[4]; sc, 3 mg/kg",18.8 h
same,AUC(0-inf),[1]; [9],3.84 µM·h
same,C0,[1]; [9],2950 nM
same,Vd,[1]; [9],0.134 L/kg
same,clearance,[1]; [9],0.483 mL/min/kg
same,half-life,[1]; [5],3.3 h
same,AUC(0-inf),[1]; [6],2.11 µM·h
same,Cmax,[1]; [6],261 nM
same,Tmax,[1]; [6],2 h
same,half-life,[1]; [6],5.4 h
same,prolongation of IV half-life,"[1]; rats, IV, compared to Chol-PIE12-trimer",2 fold
same,prolongation of SC half-life,"[1]; rats, SC, compared to Chol-PIE12-trimer",1.4 fold
same,solubility,[3],~ 40 mg/ml
